Assays:
[1] = target: T1, rat brain farnesyl:protein transferase (rat, UniProt Q04631 2-377; Q02293 1-437); assay: cell-based or functional assay
[2] = target: T1, rat brain farnesyl:protein transferase; assay: cell-based or functional assay; remark: listed apart in the source

Concentration for 50% Inhibition [1] [µM] | fold decrease of affinity against CVIM, from the concentration required for 50% inhibition [2] [fold] | Binder
100 | – | CIKS
– | 30 | CVAM

— patent US8003342
